Results published in US20150087046A1 (SPIBER TECHNOLOGIES, published 2015).

B1: His6-scFv1-NTCT fusion protein (scFv)
chain: MGSSGHHHHHHMEVQLLESGGGLVQPGGSLRLSCAASGFTFSSYEMNWVRQAPGKGLEWVSGISGSGGFTYYADSVKGRFTISRDNSKNTLYLQMNSLRAEDTAMYYCAREGYQDAFDIWGQGTLVTVSSGGGGSGGGGSGGGGSQSVLTQPPSASGTPGQRVTISCTGSSSNIGAGYDVHWYQQLPGTAPKLLIYSNNQRPSGVPDRFSGSKSGTSASLAISGLRSEDEADYYCAAWDDSLSGPPWVFGGGTKLTVLGEQKLISEEDLSGSAAAGNSSHTTPWTNPGLAENFMNSFMQGLSSMPGFTASQLDDMSTIAQSMVQSIQSLAAQGRTSPNKLQALNMAFASSMAEIAASEEGGGSLSTKTSSIASAMSNAFLQTTGVVNQPFINEITQLVSMFAQAGMNDVSAGNSGIQGYGQSSASASAAASAASTVANSVSRLSSPSAVSRVSSAVSSLVSNGQVNMAALPNIISNISSSVSASAPGASGCEVIVQALLEVITALVQIVSSSSVGYINPSAVNQITNVVANAMAQVMG
B2: His6-ABD-CT fusion protein (other)
chain: MGHHHHHHMLAEAKVLANRELDKYGVSDYYKNLINNAKTVEGVKALIDEILAALPGNSGIQGYGQSSASASAAASAASTVANSVSRLSSPSAVSRVSSAVSSLVSNGQVNMAALPNIISNISSSVSASAPGASGCEVIVQALLEVITALVQIVSSSSVGYINPSAVNQITNVVANAMAQVMG
notes: Tested as a solid film (polymer of the fusion protein) cast in 96-well plates from 15 ul of 1 mg/ml protein
B3: CT (control) film (other)
chain: SRLSSPSAVSRVSSAVSSLVSNGQVNMAALPNIISNISSSVSASAPGASGCEVIVQALLEVITALVQIVSSSSVGYINPSAVNQITNVVANAMAQVMG
B4: His6-ABD-NTCT fusion protein (other)
chain: MGSSGHHHHHHMLAEAKVLANRELDKYGVSDYYKNLINNAKTVEGVKALIDEILAALPGNSSHTTPWTNPGLAENFMNSFMQGLSSMPGFTASQLDDMSTIAQSMVQSIQSLAAQGRTSPNKLQALNMAFASSMAEIAASEEGGGSLSTKTSSIASAMSNAFLQTTGVVNQPFINEITQLVSMFAQAGMNDVSAGNSGIQGYGQSSASASAAASAASTVANSVSRLSSPSAVSRVSSAVSSLVSNGQVNMAALPNIISNISSSVSASAPGASGCEVIVQALLEVITALVQIVSSSSVGYINPSAVNQITNVVANAMAQVMG
notes: as for B2
B5: NTCT (control) film (other)
chain: HHHHHHMSHTTPWTNPGLAENFMNSFMQGLSSMPGFTASQLDDMSTIAQSMVQSIQSLAAQGRTSPNKLQALNMAFASSMAEIAASEEGGGSLSTKTSSIASAMSNAFLQTTGVVNQPFINEITQLVSMFAQAGMNDVSASASAGASAAASAGAGSGNSGIQGYGQSSASASAAASAASTVANSVSRLSSPSAVSRVSSAVSSLVSNGQVNMAALPNIISNISSSVSASAPGASGCEVIVQALLEVITALVQIVSSSSVGYINPSAVNQITNVVANAMAQVMG
notes: also called His6NT-CT; His6NTCT

Key:
[1] = biological target: biotinylated antigen sample (antigen recognised by scFv1, specific for Systemic Lupus Erythematosus); experiment: microarray of spotted films, 10 nM biotinylated antigen, Alexa-647-streptavidin, spot intensity; reference: pure scFv1 control
[2] = biological target: T1, albumin from human blood plasma (human, UniProt P02768 25-609); experiment: film incubated with human blood plasma (1:5), acid elution, non-reducing SDS-PAGE
T1 construct: Not purified: the albumin source was diluted human blood plasma
T1 sequence (P02768 25-609 limits assumed): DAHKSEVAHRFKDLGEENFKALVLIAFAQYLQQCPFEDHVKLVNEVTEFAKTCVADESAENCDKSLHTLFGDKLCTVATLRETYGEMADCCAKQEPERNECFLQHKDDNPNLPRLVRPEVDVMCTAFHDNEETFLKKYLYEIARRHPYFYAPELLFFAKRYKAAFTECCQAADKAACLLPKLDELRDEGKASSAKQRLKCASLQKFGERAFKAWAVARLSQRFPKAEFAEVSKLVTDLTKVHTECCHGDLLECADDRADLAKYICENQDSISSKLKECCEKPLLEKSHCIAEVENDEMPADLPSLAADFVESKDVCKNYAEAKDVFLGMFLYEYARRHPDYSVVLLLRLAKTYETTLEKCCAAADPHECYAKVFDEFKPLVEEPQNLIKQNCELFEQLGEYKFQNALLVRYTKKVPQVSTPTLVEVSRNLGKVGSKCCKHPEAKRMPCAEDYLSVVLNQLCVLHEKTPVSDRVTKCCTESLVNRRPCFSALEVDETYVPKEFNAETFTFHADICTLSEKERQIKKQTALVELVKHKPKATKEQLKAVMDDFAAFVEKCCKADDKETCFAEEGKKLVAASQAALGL
Protocol: Films of His₆-ABD-CT were casted in 96-well plates (Tissue culture plate, Suspension cells, 83.1835.500, Sarstedt) from 15 μl of 1 mg/ml soluble fusion protein per film. The films were then allowed to solidify over night (20° C., 35% relative humidity). The same procedure was followed for casting films of His₆-ABD-NTCT from 15 μl of 1 mg/ml protein solution.
(§1) To evaluate the ability of ABD-NTCT films to bind albumin, human blood plasma was used as albumin source. Four films of ABD-NTCT and ABD-CT were pre-wetted with 150 μl of 1×PBS followed by incubation of 100 μl of human blood plasma (1:5 dilution) for 30 min at room temperature. After washing three times with 200 μl 1×PBS, bound albumin was eluted in 50 μl by lowering the pH to approximately 2.7 with elution buffer (i.e. 0.5 M acetic acid, 1 M urea, 100 mM NaCl), after which the eluted fractions were analyzed by non-reducing SDS-PAGE. Films of NTCT and CT were used as control material, and were treated in the same way.

[3] = biological target: T1, albumin from human blood plasma; experiment: film incubated with plasma, acid elution, non-reducing SDS-PAGE
Protocol: as §1

Row | Binder | binding result [2] | binding result [3] | other results
1 | B1 | – | – | fold increase of antigen recognition against the scFv1 control [1]: 25 times
2 | B2 | binds | – | –
3 | B3 | – | no binding (tested: human blood plasma (1:5 dilution)) | –
4 | B4 | binds | – | –
5 | B5 | – | no binding (tested: human blood plasma (1:5 dilution)) | –
